Experiments:
[1] = test system: 10-mer (SEQ ID NO:13) cleavage domain peptide
[2] = test system: 19-mer (SEQ ID NO:11) cleavage domain peptide
[3] = test system: 9-mer (SEQ ID NO:12) cleavage domain peptide

Sequence of Active MMP-9 enzyme (chain, as listed by the source): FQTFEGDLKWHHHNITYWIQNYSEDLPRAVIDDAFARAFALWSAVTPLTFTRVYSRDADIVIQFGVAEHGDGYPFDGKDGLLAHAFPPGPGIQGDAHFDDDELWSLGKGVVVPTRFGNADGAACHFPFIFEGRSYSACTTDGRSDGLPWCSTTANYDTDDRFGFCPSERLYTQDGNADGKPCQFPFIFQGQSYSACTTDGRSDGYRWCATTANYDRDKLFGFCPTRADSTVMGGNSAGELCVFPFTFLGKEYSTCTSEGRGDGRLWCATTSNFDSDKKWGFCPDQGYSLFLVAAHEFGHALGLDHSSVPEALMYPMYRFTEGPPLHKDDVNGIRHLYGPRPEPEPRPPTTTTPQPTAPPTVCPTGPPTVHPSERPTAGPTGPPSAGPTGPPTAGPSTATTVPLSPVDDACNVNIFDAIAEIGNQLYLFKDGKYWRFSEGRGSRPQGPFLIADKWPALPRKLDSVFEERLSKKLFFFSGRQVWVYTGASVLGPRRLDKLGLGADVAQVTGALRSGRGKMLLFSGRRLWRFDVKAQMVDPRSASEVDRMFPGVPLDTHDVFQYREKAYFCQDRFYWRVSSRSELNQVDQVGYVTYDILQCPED

Active MMP-9 enzyme
extended time course of MMP-9 catalyzed hydrolysis of collagen [1]: The 10-mer (SEQ ID NO:13) peptide is less effective at preventing the destruction of collagen at long time points (FIG. 9) than is the 9-mer (SEQ ID NO:12) peptide (FIG. 10) | extended time course of MMP-9 catalyzed hydrolysis of collagen [2]: the 19-mer (SEQ ID NO:11) effectively inhibits the MMP-9 catalyzed hydrolysis of collagen to beyond 1000 minutes | extended time course of MMP-9 catalyzed hydrolysis of collagen [3]: The 10-mer (SEQ ID NO:13) peptide is less effective at preventing the destruction of collagen at long time points (FIG. 9) than is the 9-mer (SEQ ID NO:12) peptide (FIG. 10)

From US20030166567
